Data reported in paper PMC7395460, “Structural mechanism of helicase loading onto replication origin DNA by ORC-Cdc6” (Proceedings of the National Academy of Sciences of the …, 2020).

Key:
Settings in all cases: both partners purified
[1] = biological target: T1, origin recognition complex (Orc1-6; ORC) (S. cerevisiae, UniProt P54784 1-914; P32833 1-620; P54790 1-616; P54791 1-529; P50874 1-479; P38826 …); assay: cryo-EM structure; semi-attached OCCM, 4.3 Å; assembled from purified ORC, Cdc6, Cdt1 and mutant Mcm2-7 on pUC19-ARS1 DNA beads with 3 mM ATPγS, 15 min at 24 °C, eluted with DNase I
T1 construct: Orc1, subunit of the S. cerevisiae origin recognition complex; Orc2, subunit of the S. cerevisiae origin recognition complex; Orc3, subunit of the S. cerevisiae origin recognition complex; Orc4, subunit of the S. cerevisiae origin recognition complex; Orc5, subunit of the S. cerevisiae origin recognition complex; Orc6, subunit of the S. cerevisiae origin recognition complex; copies: + + + + +

Orc1 = biological target: T2, Orc1 (S. cerevisiae, UniProt P54784 1-914); assay: as above
T2 construct: Orc1, subunit of the S. cerevisiae origin recognition complex; Stood in the assay as a subunit of ORC
T2 sequence: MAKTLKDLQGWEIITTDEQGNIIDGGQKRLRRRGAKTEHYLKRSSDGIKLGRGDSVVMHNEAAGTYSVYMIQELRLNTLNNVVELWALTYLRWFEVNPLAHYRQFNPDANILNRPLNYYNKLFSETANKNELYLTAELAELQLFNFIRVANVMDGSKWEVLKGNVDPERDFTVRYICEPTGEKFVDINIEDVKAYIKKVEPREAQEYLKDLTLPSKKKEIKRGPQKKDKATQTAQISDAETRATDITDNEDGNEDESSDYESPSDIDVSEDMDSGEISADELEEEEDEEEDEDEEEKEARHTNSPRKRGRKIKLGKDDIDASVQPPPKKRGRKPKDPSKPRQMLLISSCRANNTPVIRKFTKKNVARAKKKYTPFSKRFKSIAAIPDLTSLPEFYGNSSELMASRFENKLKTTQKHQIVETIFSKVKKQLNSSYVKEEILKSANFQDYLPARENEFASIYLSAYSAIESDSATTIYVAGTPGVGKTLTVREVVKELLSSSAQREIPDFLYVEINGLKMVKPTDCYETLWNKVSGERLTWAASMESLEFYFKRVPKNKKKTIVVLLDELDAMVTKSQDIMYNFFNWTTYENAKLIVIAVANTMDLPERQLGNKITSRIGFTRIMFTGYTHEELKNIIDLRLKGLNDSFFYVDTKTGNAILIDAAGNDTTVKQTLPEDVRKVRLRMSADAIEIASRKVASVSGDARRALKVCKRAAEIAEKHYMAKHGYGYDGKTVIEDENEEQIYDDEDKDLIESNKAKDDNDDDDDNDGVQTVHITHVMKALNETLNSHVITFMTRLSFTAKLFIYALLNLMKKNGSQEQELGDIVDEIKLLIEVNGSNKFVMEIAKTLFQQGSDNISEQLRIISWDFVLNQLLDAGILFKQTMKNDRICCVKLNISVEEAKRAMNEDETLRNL

Mcm7 = biological target: T3, Mcm7 (S. cerevisiae, UniProt P38132 1-845); assay: cryo-EM structure; pre-insertion OCCM, 8.1 Å; same loading reaction (purified ORC, Cdc6, Cdt1, mutant Mcm2-7, ARS1 DNA, ATPγS); models docked as rigid bodies
T3 construct: Mcm7 of S. cerevisiae; Stood in the assay as a subunit of the mutant Mcm2-7; in the semi-attached OCCM only its WHD is resolved
T3 sequence (looked up): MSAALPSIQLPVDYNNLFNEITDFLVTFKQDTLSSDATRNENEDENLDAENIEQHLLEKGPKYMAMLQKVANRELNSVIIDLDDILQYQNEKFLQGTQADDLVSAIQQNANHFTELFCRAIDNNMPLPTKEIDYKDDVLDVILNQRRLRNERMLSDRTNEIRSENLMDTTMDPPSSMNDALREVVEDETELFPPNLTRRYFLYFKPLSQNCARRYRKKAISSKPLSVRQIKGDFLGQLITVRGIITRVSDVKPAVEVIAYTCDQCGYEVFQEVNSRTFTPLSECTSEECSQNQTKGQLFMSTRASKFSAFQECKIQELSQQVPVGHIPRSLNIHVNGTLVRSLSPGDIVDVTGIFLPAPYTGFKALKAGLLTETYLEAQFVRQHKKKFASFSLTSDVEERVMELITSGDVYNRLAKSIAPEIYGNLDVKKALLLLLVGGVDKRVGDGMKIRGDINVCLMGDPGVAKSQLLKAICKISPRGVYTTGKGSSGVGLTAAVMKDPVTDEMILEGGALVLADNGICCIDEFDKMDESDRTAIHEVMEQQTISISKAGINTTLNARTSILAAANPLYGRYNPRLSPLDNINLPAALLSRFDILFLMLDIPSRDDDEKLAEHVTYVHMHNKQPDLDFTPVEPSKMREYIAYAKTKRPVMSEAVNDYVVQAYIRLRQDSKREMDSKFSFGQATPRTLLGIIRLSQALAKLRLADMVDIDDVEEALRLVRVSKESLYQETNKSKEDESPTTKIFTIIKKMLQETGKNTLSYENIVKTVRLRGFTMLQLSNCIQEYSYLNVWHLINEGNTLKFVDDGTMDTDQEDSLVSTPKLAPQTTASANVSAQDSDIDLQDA

Mcm3 = biological target: T4, Mcm3 (S. cerevisiae, UniProt P24279 1-971); assay: as above
T4 construct: Mcm3 of S. cerevisiae; Stood in the assay as a subunit of the mutant Mcm2-7; in the semi-attached OCCM only its WHD is resolved
T4 sequence (P24279 whole entry): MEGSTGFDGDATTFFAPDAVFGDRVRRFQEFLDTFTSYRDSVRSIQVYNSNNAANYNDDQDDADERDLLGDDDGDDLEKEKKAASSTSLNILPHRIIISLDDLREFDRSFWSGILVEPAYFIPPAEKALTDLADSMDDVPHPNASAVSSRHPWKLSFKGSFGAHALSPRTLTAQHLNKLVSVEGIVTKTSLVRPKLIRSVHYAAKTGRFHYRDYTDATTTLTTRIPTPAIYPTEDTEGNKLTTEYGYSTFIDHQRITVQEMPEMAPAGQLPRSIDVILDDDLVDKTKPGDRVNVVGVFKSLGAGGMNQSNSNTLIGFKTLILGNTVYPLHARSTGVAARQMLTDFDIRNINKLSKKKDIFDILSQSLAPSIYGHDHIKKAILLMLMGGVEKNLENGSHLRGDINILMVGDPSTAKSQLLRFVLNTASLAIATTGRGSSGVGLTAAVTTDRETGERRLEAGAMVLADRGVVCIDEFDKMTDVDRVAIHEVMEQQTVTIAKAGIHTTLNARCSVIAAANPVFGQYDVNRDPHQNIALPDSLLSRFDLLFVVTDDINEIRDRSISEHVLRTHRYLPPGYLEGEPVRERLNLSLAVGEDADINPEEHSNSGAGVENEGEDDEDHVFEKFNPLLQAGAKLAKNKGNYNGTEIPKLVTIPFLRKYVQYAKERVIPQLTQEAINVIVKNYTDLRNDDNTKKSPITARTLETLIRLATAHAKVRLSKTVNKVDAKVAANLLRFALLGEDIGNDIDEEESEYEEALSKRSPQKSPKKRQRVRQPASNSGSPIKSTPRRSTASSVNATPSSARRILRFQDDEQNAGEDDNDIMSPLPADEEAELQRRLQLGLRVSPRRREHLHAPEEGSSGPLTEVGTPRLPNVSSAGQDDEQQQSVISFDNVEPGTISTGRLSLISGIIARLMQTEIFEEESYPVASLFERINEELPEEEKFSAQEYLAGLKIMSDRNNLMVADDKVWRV

Measured: binding result

B1: Cdc6 (natural protein, S. cerevisiae)
chain: MSAIPITPTKRIRRNLFDDAPATPPRPLKRKKLQFTDVTPESSPEKLQFGSQSIFLRTKALLQKSSELVNLNSSDGALPARTAEYEQVMNFLAKAISEHRSDSLYITGPPGTGKTAQLDMIIRQKFQSLPLSLSTPRSKDVLRHTNPNLQNLSWFELPDGRLESVAVTSINCISLGEPSSIFQKIFDSFQDLNGPTLQIKNMQHLQKFLEPYHKKTTFVVVLDEMDRLLHANTSETQSVRTILELFLLAKLPTVSFVLIGMANSLDMKDRFLSRLNLDRGLLPQTIVFQPYTAEQMYEIVIQKMSSLPTIIFQPMAIKFAAKKCAGNTGDLRKLFDVLRGSIEIYELEKRFLLSPTRGSLNSAQVPLTPTTSPVKKSYPEPQGKIGLNYIAKVFSKFVNNNSTRTRIAKLNIQQKLILCTIIQSLKLNSDATIDESFDHYIKAITKTDTLAPLQRNEFLEICTILETCGLVSIKKTKCKGKTKRFVDKIDVDLDMREFYDEMTKISILKPFLH
notes: Cdc6 of S. cerevisiae
binds: all assays above
